Source: patent publication US20090192084A1 (CALIFORNIA INSTITUTE OF TECHNOLOGY, published 2009)
One block for each binder: values may come before it.

B1: Flag-p47 (other, UniProt O35987 1-370, looked up)
chain: MAEERQDALREFVAVTGAEEDRARFFLESAGWDLQIALASFYEDGGDEDIVTISQATPSSVSRGTAPSDNRVTSFRDLIHDQDEEEEEEEGQRFYAGGSERSGQQIVGPPRKKSPNELVDDLFKGAKEHGAVAVERVTKSPGETSKPRPFAGGGYRLGAAPEEESAYVAGERRRHSGQDVHVVLKLWKTGFSLDNGDLRSYQDPSNAQFLESIRRGEVPAELRRLAHGGQVNLDMEDHRDEDFVKPKGAFKAFTGEGQKLGSTAPQVLNTSSPAQQAENEAKASSSILINEAEPTTNIQIRLADGGRLVQKFNHSHRISDIRLFIVDARPAMAATSFVLMTTFPNKELADENQTLKEANLLNAVIVQRLT
notes: also called RDB 2148; not shown: N-terminal Flag tag

Key:
endogenous NPL4 [1] = molecular target: T1, endogenous NPL4 (human, UniProt Q8TAT6-2 2-617, limits assumed); experiment: Flag co-IP, 293 cells, MudPIT MS
T1 sequence (looked up): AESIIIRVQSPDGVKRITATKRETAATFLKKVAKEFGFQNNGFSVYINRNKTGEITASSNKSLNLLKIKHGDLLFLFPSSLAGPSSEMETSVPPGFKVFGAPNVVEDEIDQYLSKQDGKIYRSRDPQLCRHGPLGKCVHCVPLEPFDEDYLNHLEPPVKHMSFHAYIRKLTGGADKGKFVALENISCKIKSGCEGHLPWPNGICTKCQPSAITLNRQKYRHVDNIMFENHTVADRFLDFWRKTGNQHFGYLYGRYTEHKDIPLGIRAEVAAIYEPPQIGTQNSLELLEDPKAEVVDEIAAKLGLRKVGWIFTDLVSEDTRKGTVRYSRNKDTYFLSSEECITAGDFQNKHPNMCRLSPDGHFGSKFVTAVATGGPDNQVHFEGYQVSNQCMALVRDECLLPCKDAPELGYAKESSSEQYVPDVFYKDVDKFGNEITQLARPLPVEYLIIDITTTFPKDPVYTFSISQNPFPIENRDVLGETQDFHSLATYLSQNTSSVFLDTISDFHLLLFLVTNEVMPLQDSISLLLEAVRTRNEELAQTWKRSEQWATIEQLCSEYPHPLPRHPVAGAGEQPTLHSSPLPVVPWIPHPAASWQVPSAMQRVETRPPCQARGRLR
Description: (§1) For immunoprecipitation experiments, the cells were lysed in buffer A (50 mM HEPES/KOH, pH 7.5; 5 mM Mg(OAc)₂; 70 mM KOAc; 0.2% Triton X-100; 10% glycerol; 0.2 mM EDTA; protease inhibitors) and incubated with anti-Flag agarose beads (Sigma) or anti-Myc sepharose beads (Covance).
(§2) Mass spectrometrical sample analysis was performed as described previously (Graumann et al., 2004) using a high-pressure liquid chromatography pump (Agilent) in line to a LCQ DecaXP electrospray ion trap mass spectrometer (ThermoFinnigan). In brief, 2-4 mg of protein extract were incubated with anti-Flag or anti-Myc beads and the immunoprecipitated proteins were eluted with saturated urea. The eluates were then proteolitically digested using sequentially endoproteinase Lys-C and trypsin. The resulting peptide mixtures were pressure-loaded onto triphasic microcapillary columns and sample separation was achieved using a chromatography program consisting of six salt steps, each followed by an organic gradient. The eluting peptides were electrosprayed into the mass spectrometer and the column eluate was continuously analyzed. One full-range mass scan ([…]) was followed by three data-dependent tandem mass spectrometry (MS/MS) spectra. Sequence database matching was performed against the IPI human database (Kersey et al., 2004) version 3.15.1 using Sequest (Eng et al., 1994) and the results were filtered with DTASelect (Tabb et al., 2002), using the parameters indicated in Graumann et al. (2004).

endogenous p97 [2] = molecular target: T2, endogenous p97 (human, UniProt P55072 2-806); experiment: Flag co-IP, 293 cells, MudPIT MS
T2 construct: also called VCP
Description: as §1, §2

endogenous NPL4 [3] = molecular target: T1, endogenous NPL4; experiment: Flag co-IP, mass spectrometry and immunoblotting
[4] = molecular target: T3, Ubiquitin conjugation factor E4 B, UBE4B (Ufd2ortholog) (human, UniProt O95155 1-1302); experiment: co-IP, MudPIT MS
T3 sequence (looked up): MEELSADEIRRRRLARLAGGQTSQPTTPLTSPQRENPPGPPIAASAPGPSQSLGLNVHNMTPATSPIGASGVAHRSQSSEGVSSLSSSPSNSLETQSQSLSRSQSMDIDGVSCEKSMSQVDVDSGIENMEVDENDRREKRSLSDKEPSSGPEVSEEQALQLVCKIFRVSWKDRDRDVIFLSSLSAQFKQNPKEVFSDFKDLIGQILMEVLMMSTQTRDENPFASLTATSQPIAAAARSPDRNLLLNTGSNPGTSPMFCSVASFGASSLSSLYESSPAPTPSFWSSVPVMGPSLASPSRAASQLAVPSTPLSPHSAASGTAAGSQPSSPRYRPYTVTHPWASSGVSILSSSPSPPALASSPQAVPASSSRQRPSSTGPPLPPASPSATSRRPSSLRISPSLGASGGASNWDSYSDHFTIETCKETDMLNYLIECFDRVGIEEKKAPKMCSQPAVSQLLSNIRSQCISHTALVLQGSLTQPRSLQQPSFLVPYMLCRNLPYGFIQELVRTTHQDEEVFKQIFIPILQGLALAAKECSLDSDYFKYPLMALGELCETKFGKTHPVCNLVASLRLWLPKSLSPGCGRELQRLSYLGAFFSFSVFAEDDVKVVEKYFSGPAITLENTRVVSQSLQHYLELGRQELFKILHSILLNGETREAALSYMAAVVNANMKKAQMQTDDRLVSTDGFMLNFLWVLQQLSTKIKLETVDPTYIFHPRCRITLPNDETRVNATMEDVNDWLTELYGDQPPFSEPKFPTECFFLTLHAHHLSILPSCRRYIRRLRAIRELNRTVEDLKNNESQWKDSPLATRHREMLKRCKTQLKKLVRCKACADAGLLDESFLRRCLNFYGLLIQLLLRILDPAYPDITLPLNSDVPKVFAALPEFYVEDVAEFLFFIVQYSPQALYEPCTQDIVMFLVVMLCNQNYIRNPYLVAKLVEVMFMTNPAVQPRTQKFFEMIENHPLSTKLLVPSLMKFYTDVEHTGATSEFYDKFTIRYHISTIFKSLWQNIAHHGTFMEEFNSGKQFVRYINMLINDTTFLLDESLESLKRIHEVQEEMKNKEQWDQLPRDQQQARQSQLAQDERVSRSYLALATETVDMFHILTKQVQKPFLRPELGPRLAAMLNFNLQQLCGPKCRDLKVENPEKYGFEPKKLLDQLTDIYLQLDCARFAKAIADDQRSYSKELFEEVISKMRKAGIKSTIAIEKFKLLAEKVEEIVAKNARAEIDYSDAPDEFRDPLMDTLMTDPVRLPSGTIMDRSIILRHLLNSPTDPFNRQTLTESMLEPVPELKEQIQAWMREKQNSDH

Flag-p47 = molecular target: B1; experiment: Flag co-IP, mass spectrometry and immunoblotting
endogenous p97 [5] = molecular target: T2, endogenous p97; experiment: Flag co-IP from HeLa cells, western blot
Cullin 1 = molecular target: T4, Cullin 1 (human, UniProt Q13616 1-776, limits assumed); experiment: Flag co-IP, HeLa cells, western blot
T4 construct: also called CUL1

Cullin 2 = molecular target: T5, Cullin 2 (human, UniProt Q13617 1-745); experiment: Flag co-IP, HeLa cells, western blot
T5 construct: also called CUL2

endogenous p97 [6] = molecular target: T2, endogenous p97; experiment: Superdex 200 gel filtration of HeLa extracts, western blot
Description: Luc—luciferase (C) HeLa cell extracts were fractionated on a Superdex 200 gel filtration column. Individual fractions were concentrated by TCA precipitation and subjected to western blotting using specific antibodies. All proteins were endogenously expressed.

T2 sequence (P55072 2-806 limits assumed): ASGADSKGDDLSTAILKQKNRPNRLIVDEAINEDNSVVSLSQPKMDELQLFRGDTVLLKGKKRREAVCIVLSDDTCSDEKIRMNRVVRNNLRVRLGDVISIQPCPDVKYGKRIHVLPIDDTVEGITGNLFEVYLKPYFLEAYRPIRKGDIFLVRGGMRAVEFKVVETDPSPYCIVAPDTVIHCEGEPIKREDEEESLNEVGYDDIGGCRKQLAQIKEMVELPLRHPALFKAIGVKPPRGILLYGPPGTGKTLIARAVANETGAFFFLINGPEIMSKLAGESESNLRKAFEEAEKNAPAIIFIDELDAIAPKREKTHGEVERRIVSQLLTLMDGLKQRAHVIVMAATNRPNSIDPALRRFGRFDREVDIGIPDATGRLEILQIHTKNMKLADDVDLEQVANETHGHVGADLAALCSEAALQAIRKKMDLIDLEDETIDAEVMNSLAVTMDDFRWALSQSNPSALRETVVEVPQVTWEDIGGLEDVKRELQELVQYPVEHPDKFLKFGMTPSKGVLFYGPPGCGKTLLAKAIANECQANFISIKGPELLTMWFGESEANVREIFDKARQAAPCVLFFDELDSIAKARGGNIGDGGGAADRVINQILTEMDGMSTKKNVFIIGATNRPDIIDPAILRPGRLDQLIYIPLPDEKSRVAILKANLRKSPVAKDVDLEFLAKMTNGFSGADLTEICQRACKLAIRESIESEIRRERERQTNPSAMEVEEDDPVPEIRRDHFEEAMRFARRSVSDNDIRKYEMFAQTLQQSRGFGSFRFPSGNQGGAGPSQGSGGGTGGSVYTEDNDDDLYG
T4 sequence (Q13616 whole entry): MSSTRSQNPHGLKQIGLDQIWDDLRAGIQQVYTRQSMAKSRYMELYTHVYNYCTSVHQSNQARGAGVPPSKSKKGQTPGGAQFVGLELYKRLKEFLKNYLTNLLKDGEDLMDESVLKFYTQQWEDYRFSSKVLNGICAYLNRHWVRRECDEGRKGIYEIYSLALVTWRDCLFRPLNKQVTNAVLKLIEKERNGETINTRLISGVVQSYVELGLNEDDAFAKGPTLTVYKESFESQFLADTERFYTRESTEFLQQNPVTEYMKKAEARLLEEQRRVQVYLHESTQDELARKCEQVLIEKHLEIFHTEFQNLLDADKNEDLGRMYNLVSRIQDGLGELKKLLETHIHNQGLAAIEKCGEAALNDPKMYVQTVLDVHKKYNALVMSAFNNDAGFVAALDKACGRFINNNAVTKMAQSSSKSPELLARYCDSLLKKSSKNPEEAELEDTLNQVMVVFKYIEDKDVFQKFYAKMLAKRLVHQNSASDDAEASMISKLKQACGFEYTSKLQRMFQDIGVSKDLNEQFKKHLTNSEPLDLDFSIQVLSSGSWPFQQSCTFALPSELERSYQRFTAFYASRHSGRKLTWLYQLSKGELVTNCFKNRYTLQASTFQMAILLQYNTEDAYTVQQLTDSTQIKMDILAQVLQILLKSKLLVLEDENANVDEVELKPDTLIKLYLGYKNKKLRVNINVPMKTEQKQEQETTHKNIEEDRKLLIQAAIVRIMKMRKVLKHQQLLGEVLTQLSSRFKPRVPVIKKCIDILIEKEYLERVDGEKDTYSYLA
T5 sequence (Q13617 whole entry): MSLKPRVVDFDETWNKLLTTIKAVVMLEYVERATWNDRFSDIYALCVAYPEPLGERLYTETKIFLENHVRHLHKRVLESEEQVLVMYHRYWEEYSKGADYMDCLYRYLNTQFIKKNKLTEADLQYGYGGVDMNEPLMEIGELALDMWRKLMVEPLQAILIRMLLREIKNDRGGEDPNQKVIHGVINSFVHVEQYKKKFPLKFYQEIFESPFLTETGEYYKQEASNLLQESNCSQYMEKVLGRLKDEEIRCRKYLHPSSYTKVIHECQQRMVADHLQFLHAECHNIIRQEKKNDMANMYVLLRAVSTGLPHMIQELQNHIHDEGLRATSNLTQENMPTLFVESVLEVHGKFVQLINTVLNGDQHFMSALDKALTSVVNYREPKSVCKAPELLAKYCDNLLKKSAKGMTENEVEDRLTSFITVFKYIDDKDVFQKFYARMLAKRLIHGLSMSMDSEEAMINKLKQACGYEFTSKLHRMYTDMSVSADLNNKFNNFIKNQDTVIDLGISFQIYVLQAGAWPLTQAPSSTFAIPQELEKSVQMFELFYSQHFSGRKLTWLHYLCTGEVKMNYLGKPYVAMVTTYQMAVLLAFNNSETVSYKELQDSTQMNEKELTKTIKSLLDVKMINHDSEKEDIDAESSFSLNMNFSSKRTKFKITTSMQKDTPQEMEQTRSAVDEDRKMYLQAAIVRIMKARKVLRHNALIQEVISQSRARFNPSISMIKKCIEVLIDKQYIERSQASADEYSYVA

binding result (Flag-p47): no binding
B3: endogenous UFD1 (other, human, UniProt Q92890-1 1-343, looked up)
chain: MFSFNMFDHPIPRVFQNRFSTQYRCFSVSMLAGPNDRSDVEKGGKIIMPPSALDQLSRLNITYPMLFKLTNKNSDRMTHCGVLEFVADEGICYLPHWMMQNLLLEEDGLVQLETVNLQVATYSKSKFCYLPHWMMQNLLLEEGGLVQVESVNLQVATYSKFQPQSPDFLDITNPKAVLENALRNFACLTTGDVIAINYNEKIYELRVMETKPDKAVSIIECDMNVDFDAPLGYKEPERQVQHEESTEGEADHSGYAGELGFRAFSGSGNRLDGKKKGVEPSPSPIKPGDIKRGIPNYEFKLGKITFIRNSRPLVKKVEEDEAGGRFVAFSGEGQSLRKKGRKP

binding result (endogenous p97 [5]): no binding | binding result (Cullin 1): binds | binding result (Cullin 2): binds
B4: Flag-UBXD7ΔUBX (other, not shown: small tags and cut ends)
chain: MAAHGGSAASSALKGLIQQFTTITGASESVGKHMLEACNNNLEMAVTMFLDGGGIAEEPSTSSASVSTVRPHTEEEVRAPIPQKQEILVEPEPLFGAPKRRRPARSIFDGFRDFQTETIRQEQELRNGGAIDKKLTTLADLFRPPIDLMHKGSFETAKECGQMQNKWLMINIQNVQDFACQCLNRDVWSNEAVKNIIREHFIFWQVYHDSEEGQRYIQFYKLGDFPYVSILDPRTGQKLVEWHQLDVSSFLDQVTGFLGEHGQLDGLSSSPPKKCARSESLIDASEDSQLEAAIRASLQETHFDSTQTKQDSRSDEESESELFSGSEEFISVCGSDEEEEVENLAKSRKSPHKDLGHRKEENRRPLTEPPVRTDPGTATNHQGLPAVDSEILEMPPEKAD
notes: also called UBXD7(1-400); truncated UBXD7

Continued, binder first:

Binder: B1
sequence count (endogenous NPL4 [1]): 2 | sequence coverage (endogenous NPL4 [1]): 6% | spectrum count (endogenous NPL4 [1]): 2 | sequence count (endogenous p97 [2]): 172 | sequence coverage (endogenous p97 [2]): 82.7% | spectrum count (endogenous p97 [2]): 1610 | binding result (endogenous NPL4 [3]): no binding

B2: Flag-UBXD7 (other, UniProt O94888 1-489, looked up)
chain: MAAHGGSAASSALKGLIQQFTTITGASESVGKHMLEACNNNLEMAVTMFLDGGGIAEEPSTSSASVSTVRPHTEEEVRAPIPQKQEILVEPEPLFGAPKRRRPARSIFDGFRDFQTETIRQEQELRNGGAIDKKLTTLADLFRPPIDLMHKGSFETAKECGQMQNKWLMINIQNVQDFACQCLNRDVWSNEAVKNIIREHFIFWQVYHDSEEGQRYIQFYKLGDFPYVSILDPRTGQKLVEWHQLDVSSFLDQVTGFLGEHGQLDGLSSSPPKKCARSESLIDASEDSQLEAAIRASLQETHFDSTQTKQDSRSDEESESELFSGSEEFISVCGSDEEEEVENLAKSRKSPHKDLGHRKEENRRPLTEPPVRTDPGTATNHQGLPAVDSEILEMPPEKADGVVEGIDVNGPKAQLMLRYPDGKREQITLPEQAKLLALVKHVQSKGYPNERFELLTNFPRRKLSHLDYDITLQEAGLCPQETVFVQERN
notes: Wild-type plasmid in pCMV5B; expressed in 293 or HeLa cells and pulled down on anti-Flag beads; also called RDB 2155; not shown: N-terminal Flag tag
sequence count (endogenous p97 [2]): 77 | sequence coverage (endogenous p97 [2]): 61.2% | spectrum count (endogenous p97 [2]): 375 | binding result [4]: no binding

B5: endogenous UBXD7 (other, human, UniProt O94888 2-489, looked up)
chain: AAHGGSAASSALKGLIQQFTTITGASESVGKHMLEACNNNLEMAVTMFLDGGGIAEEPSTSSASVSTVRPHTEEEVRAPIPQKQEILVEPEPLFGAPKRRRPARSIFDGFRDFQTETIRQEQELRNGGAIDKKLTTLADLFRPPIDLMHKGSFETAKECGQMQNKWLMINIQNVQDFACQCLNRDVWSNEAVKNIIREHFIFWQVYHDSEEGQRYIQFYKLGDFPYVSILDPRTGQKLVEWHQLDVSSFLDQVTGFLGEHGQLDGLSSSPPKKCARSESLIDASEDSQLEAAIRASLQETHFDSTQTKQDSRSDEESESELFSGSEEFISVCGSDEEEEVENLAKSRKSPHKDLGHRKEENRRPLTEPPVRTDPGTATNHQGLPAVDSEILEMPPEKADGVVEGIDVNGPKAQLMLRYPDGKREQITLPEQAKLLALVKHVQSKGYPNERFELLTNFPRRKLSHLDYDITLQEAGLCPQETVFVQERN
binding result (endogenous p97 [6]): binds
